Reference: paper PMC9485235, “Structural insights into cyanobacterial RuBisCO assembly coordinated by two chaperones Raf1 and RbcX” (Cell Discovery, 2022)

Experiments:
[1] = biological target: the molecule itself; assay: cryo-EM structure; RbcL–Raf1–RbcX ternary complex co-expressed in E. coli with GroEL-GroES, purified by Ni-NTA and gel filtration in 50 mM Tris-HCl pH 8.0, 20 mM NaCl, 5 mM MgCl2; ~2 mg/mL; D4 symmetry; 3.3 Å
[2] = biological target: T1, Anabaena sp. PCC 7120 RbcL-Raf1 complex (RbcL8Raf1_(8)) (Anabaena sp. PCC 7120, UniProt P00879 1-476; Q8YLP6 1-361); assay: native gel or EMSA; RuBisCO assembly assays: 0.5 µM L8F8 or L8F8X16 mixed with Flag-RbcS (0-10-fold to RbcL), with or without pre-incubation with 8 µM RbcX or RbcX^E32A&R69A or RbcX2 at 0-1 fold to RbcL; 25 °C, 20 mM Tris-HCl pH 8.0, 300 mM NaCl, 5 mM MgCl2, 5% glycerol; ~0.5 h; 6% native-PAGE, bands analysed by SDS-PAGE; details: both partners purified
T1 construct: RbcL, Anabaena sp; as m1; plasmid pET19-His-RbcL–Raf1; Raf1, Anabaena sp; as m2; The preparation holds L8F8 and a fraction of L2F2 on native-PAGE; also called L8F8; L2F2 (smaller form in the same preparation); copies: 8 + 8
T1 sequence (Q8YLP6 whole entry, one chain of several): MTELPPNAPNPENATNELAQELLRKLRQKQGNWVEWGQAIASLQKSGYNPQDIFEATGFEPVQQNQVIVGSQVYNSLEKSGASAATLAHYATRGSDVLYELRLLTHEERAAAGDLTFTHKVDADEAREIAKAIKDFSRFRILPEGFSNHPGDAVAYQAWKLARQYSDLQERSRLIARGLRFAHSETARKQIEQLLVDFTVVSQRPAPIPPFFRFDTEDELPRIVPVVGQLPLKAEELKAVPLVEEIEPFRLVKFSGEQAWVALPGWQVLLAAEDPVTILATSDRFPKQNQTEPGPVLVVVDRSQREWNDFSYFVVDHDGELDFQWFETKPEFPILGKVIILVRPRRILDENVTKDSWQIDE

Binder | stoichiometry N [1] | binding result [2]
RuBisCO large subunit RbcL from Anabaena sp. PCC 7120 (His-RbcL) (natural protein, UniProt P00879 1-476, looked up, RbcL, ribulose-1,5-bisphosphate carboxylase/oxygenase large subunit, Anabaena sp; coding region amplified from genomic DNA; plasmid pET19-His-RbcL; also called RbcL8 core; source: E. coli BL21 (DE3), co-expressed with GroEL-GroES and chaperones, purified (Ni-NTA, gel filtration); also in lysate (holoenzyme co-purification)) MSYAQTKTQTKSGYKAGVQDYRLTYYTPDYTPKDTDILAAFRVTPQPGVPFEEAAAAVAAESSTGTWTTVWTDLLTDLDRYKGRCYDIEPVPGEDNQFIAYIAYPLDLFEEGSITNVLTSIVGNVFGFKALRALRLEDIRFPVAYIKTFQGPPHGIQVERDKLNKYGRPLLGCTIKPKLGLSAKNYGRAVYECLRGGLDFTKDDENINSAPFQRWRDRFLFVADAITKAQAETGEIKGHYLNVTAPTCEEMLKRAEYAKELKQPIIMHDYLTAGFTANTTLARWCRDNGVLLHIHRAMHAVIDRQKNHGIHFRVLAKALRLSGGDHIHTGTVVGKLEGERGITMGFVDLLRENYVEQDKSRGIYFTQDWASLPGVMAVASGGIHVWHMPALVEIFGDDSVLQFGGGTLGHPWGNAPGATANRVALEACVQARNEGRNLAREGNDVIREAAKWSPELAVACELWKEIKFEFEAMDTV | 8 | 
RbcX from Anabaena sp. PCC 7120, co-expressed in the ternary complex (natural protein, RbcX, RuBisCO chaperone, Anabaena sp; coding region amplified from genomic DNA; plasmid pCDFduet-GroEL-GroES-RbcX-Raf1; No tag is named for this RbcX in the plasmid name; also called RbcX2 (dimer); source: E. coli BL21 (DE3), co-expressed with His-RbcL, Raf1 and GroEL-GroES, co-purified (Ni-NTA, gel filtration)) MNLKQIAKDTAKTLQSYLTYQALMTVLAQLGETNPPLALWLHTFSVGKVQDGEAYVKELFREQPDLALRIMTVREHIAEEVAEFLPEMVRSGIQQANMEQRRQHLERMTHLSLSNPSPESEQQTISDTDWDH | 2 | 
Recombinant Anabaena sp. PCC 7120 Flag-RbcS (RuBisCO small subunit) (natural protein, UniProt P06514 1-109, looked up, RbcS, RuBisCO small subunit, Anabaena sp; coding region amplified from genomic DNA; plasmid pET19-Flag-RbcS; A His-RbcS was also made (pET19-His-RbcS); the assembly-assay methods name Flag-RbcS; source: E. coli BL21 (DE3), purified (anti-FLAG M2 gel, Superdex 75); also in lysate (holoenzyme co-purification)) MQTLPKERRYETLSYLPPLTDVQIEKQVQYILSQGYIPAVEFNEVSEPTELYWTLWKLPLFGAKTSREVLAEVQSCRSQYPGHYIRVVGFDNIKQCQILSFIVHKPSRY |  | binds
